US20190309059A1 (SHANGHAI PHARMAEXPLORER, published 2019)

B1: 28A2E11 (lead antibody, mouse hybridoma) (antibody, V domains shown)
VH: EVQLQQSGAELVKPGASVKLSCTASGFNIKDYYMHWVKQRTEQGLEWIGRIDPEDGETKYAPKFHDKATLTADTSSNTAYLQFSSLASEDTAVYYCTRYDYYGPFAYWGQGTLVTVSA
VL: QAVVTQESVLTTSPGETVTLTCRSSTGAVTTSNYANWVQEKPDHLFTGLIGGTNNRAPGVPARFSGSLIGDKAALTITGAQTEDEAIYFCALWYINHFIFGSGTKVTVL
notes: Mouse monoclonal antibody purified from hybridoma supernatant on Protein G
B2: 29D9H8 (lead antibody, mouse hybridoma) (antibody, V domains shown)
VH: QVQLQQSGAELVRPGASVTLSCKASGYTFTDYEMHWVKQTPVHGLEWIGGIDPETGGTASNQKFKGKAILTADKSSSTAYMELRSLTSEDSAVYYCTSGDYFGGGPFAYWGQGTLVTVSA
VL: DIKMTQSPSSMYASLGERVTITCKASQDINSYLSWFQQKPGKSPKTLIYRANRLVDGVPSRFSGSGSGQDYSLTISSLDYEDMGIYYCLQYDEFPYTFGGGTKLEIK
notes: as for B1

How the values were obtained:
[1] = molecular target: mouse IL-13 (purchased from sino biological) (mouse) (UniProt P20109); test: ELISA, mouse IL-13; antibody at 0.53 nM
[2] = molecular target: cynomolgus IL-13 (purchased from sino biological) (cynomolgus) (UniProt Q0PW92); test: ELISA, cynomolgus IL-13; antibody at 0.004 nM
[3] = molecular target: cynomolgus IL-13 (purchased from sino biological) (cynomolgus) (UniProt Q0PW92); test: ELISA, cynomolgus IL-13; antibody at 0.021 nM
[4] = molecular target: mouse IL-13 (purchased from sino biological) (mouse) (UniProt P20109); test: ELISA, mouse IL-13; antibody at 0.11 nM
[5] = molecular target: mouse IL-13 (purchased from sino biological) (mouse) (UniProt P20109); test: ELISA, mouse IL-13; antibody at 0.021 nM
[6] = molecular target: mouse IL-13 (purchased from sino biological) (mouse) (UniProt P20109); test: ELISA, mouse IL-13; antibody at 0.001 nM
[7] = molecular target: mouse IL-13 (purchased from sino biological) (mouse) (UniProt P20109); test: ELISA, mouse IL-13; antibody at 2.67 nM
[8] = molecular target: cynomolgus IL-13 (purchased from sino biological) (cynomolgus) (UniProt Q0PW92); test: ELISA, cynomolgus IL-13; antibody at 0.53 nM
[9] = molecular target: mouse IL-13 (purchased from sino biological) (mouse) (UniProt P20109); test: ELISA, mouse IL-13; antibody at 0.000 nM
[10] = molecular target: mouse IL-13 (purchased from sino biological) (mouse) (UniProt P20109); test: ELISA, mouse IL-13; antibody at 0.004 nM
[11] = molecular target: cynomolgus IL-13 (purchased from sino biological) (cynomolgus) (UniProt Q0PW92); test: ELISA, cynomolgus IL-13; antibody at 2.67 nM
[12] = molecular target: T1, mouse IL-13 (purchased from sino biological) (mouse, UniProt P20109 19-131); test: ELISA, mouse IL-13; antibody at 0.53 nM
T1 chain: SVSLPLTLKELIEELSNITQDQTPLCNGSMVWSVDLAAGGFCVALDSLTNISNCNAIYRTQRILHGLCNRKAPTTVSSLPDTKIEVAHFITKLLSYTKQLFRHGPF

[13] = molecular target: T1, mouse IL-13 (purchased from sino …); test: ELISA, mouse IL-13; antibody at 0.021 nM

Chain of cynomolgus IL-13 (purchased from sino biological) (cynomolgus) (Q0PW92 entry or part of it): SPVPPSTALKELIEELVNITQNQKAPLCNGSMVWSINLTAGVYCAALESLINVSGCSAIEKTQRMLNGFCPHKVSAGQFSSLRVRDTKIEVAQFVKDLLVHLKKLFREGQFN

| Molecule | OD450 nm [1] | OD450 nm [2] | OD450 nm [3] | OD450 nm [4] | OD450 nm [5] | OD450 nm [6] | OD450 nm [7] | OD450 nm [8] | OD450 nm [9] | OD450 nm [10] | OD450 nm [11] | OD450 nm [12] | OD450 nm [13] |
| --- | --- | --- | --- | --- | --- | --- | --- | --- | --- | --- | --- | --- | --- |
| IgG control (mouse IgG) (antibody) | 0.08 | 0.061 | 0.068 | 0.08 | 0.07 | 0.07 | 0.08 | 0.08 | 0.1 | 0.07 | 0.1 |  |  |
| B1 |  |  |  |  |  |  |  |  |  |  |  | 0.07 | 0.08 |
| B2 |  |  |  |  |  |  |  |  |  |  |  | 0.06 | 0.06 |
